Experiments:
[1] = target: IL-18 WT (native sequence, SEQ ID NO: 1) (human) (UniProt Q14116)
[2] = target: C086 (SEQ ID NO: 30; E6K, V11I, C38A, K53A, T63A, C76A, C127A) (human) (UniProt Q14116); test: cell-based or functional assay
[3] = target: C143 (V11I, C38A, K53A, C76A, C127A) (human) (UniProt Q14116); test: cell-based or functional assay
[4] = target: C144 (V11I, C38A, K53A, T63A, C76A, C127A) (human) (UniProt Q14116); test: cell-based or functional assay
[5] = target: C146 (SEQ ID NO: 79; V11I, C38A, M51G, K53A, C76A, C127A) (human) (UniProt Q14116); test: cell-based or functional assay
Sequence of C146 (SEQ ID NO: 79; V11I, C38A, M51G, K53A, C76A, C127A) (human) (Q14116 37-193 V47I/C74A/M87G/K89A/C112A/C163A): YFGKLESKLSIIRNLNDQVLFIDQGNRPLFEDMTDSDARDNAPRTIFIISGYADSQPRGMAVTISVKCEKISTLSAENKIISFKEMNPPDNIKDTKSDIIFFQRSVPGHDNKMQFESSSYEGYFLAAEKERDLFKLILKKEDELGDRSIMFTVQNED

[6] = target: C148 (F2A, V11I, C38A, K53A, C76A, C127A) (human) (UniProt Q14116); test: cell-based or functional assay
Sequence of C148 (F2A, V11I, C38A, K53A, C76A, C127A) (human) (Q14116 other isoform, or with tags, fused parts or gaps V11I C38A K53A C76A C127A V11I C38A K53A C76A C127A): as the sequence (Q14116 37-193 V47I/C74A/M87G/K89A/C112A/C163A) above, with F2A, G51M counted along it

[7] = target: C152 (V11I, S36A, C38A, K53A, C76A, C127A) (human) (UniProt Q14116); test: cell-based or functional assay
Sequence of C152 (V11I, S36A, C38A, K53A, C76A, C127A) (human) (Q14116 37-193 V47I/S72A/C74A/K89A/C112A/C163A): as the sequence (Q14116 37-193 V47I/C74A/M87G/K89A/C112A/C163A) above, with S36A, G51M counted along it

[8] = target: C154 (V11I, E31A, D37A, C38A, K53A, C76A, C127A) (human) (UniProt Q14116); test: cell-based or functional assay
[9] = target: C157 (V11I, C38A, K53A, C76A, C127A, D132A) (human) (UniProt Q14116); test: cell-based or functional assay
Sequence of C157 (V11I, C38A, K53A, C76A, C127A, D132A) (human) (Q14116 37-193 V47I/C74A/K89A/C112A/C163A/D168A): as the sequence (Q14116 37-193 V47I/C74A/M87G/K89A/C112A/C163A) above, with G51M, D132A counted along it

[10] = target: C158 (V11I, C38A, K53A, C76A, G108A, C127A) (human) (UniProt Q14116); test: cell-based or functional assay
Sequence of C158 (V11I, C38A, K53A, C76A, G108A, C127A) (human) (Q14116 37-193 V47I/C74A/K89A/C112A/G144A/C163A): as the sequence (Q14116 37-193 V47I/C74A/M87G/K89A/C112A/C163A) above, with G51M, G108A counted along it

[11] = target: C160 (V11I, C38A, K53A, C76A, D110A, C127A) (human) (UniProt Q14116); test: cell-based or functional assay
Sequence of C160 (V11I, C38A, K53A, C76A, D110A, C127A) (human) (Q14116 37-193 V47I/C74A/K89A/C112A/D146A/C163A): as the sequence (Q14116 37-193 V47I/C74A/M87G/K89A/C112A/C163A) above, with G51M, D110A counted along it

[12] = target: C161 (K8R, V11I, C38A, C76A, Q103E, C127A) (human) (UniProt Q14116); test: cell-based or functional assay
Sequence of C161 (K8R, V11I, C38A, C76A, Q103E, C127A) (human) (Q14116 other isoform, or with tags, fused parts or gaps V11I C38A C76A Q103E C127A V11I C38A C76A Q103E C127A): as the sequence (Q14116 37-193 V47I/C74A/M87G/K89A/C112A/C163A) above, with K8R, G51M, A53K, Q103E counted along it

[13] = target: C162 (K8E, V11I, C38A, C76A, Q103R, C127A) (human) (UniProt Q14116); test: cell-based or functional assay
Sequence of C162 (K8E, V11I, C38A, C76A, Q103R, C127A) (human) (Q14116 other isoform, or with tags, fused parts or gaps V11I C38A C76A Q103R C127A V11I C38A C76A Q103R C127A): as the sequence (Q14116 37-193 V47I/C74A/M87G/K89A/C112A/C163A) above, with K8E, G51M, A53K, Q103R counted along it

[14] = target: C164 (V11I, C38A, S55H, C76A, C127A) (human) (UniProt Q14116); test: cell-based or functional assay
Sequence of C164 (V11I, C38A, S55H, C76A, C127A) (human) (Q14116 37-193 V47I/C74A/S91H/C112A/C163A): as the sequence (Q14116 37-193 V47I/C74A/M87G/K89A/C112A/C163A) above, with G51M, A53K, S55H counted along it

[15] = target: C165 (V11I, C38A, S55R, C76A, C127A) (human) (UniProt Q14116); test: cell-based or functional assay
[16] = target: C166 (V11I, C38A, S55T, C76A, C127A) (human) (UniProt Q14116); test: cell-based or functional assay
Sequence of C166 (V11I, C38A, S55T, C76A, C127A) (human) (Q14116 37-193 V47I/C74A/S91T/C112A/C163A): as the sequence (Q14116 37-193 V47I/C74A/M87G/K89A/C112A/C163A) above, with G51M, A53K, S55T counted along it

[17] = target: C168 (V11I, C38A, C76A, S105K, C127A) (human) (UniProt Q14116); test: cell-based or functional assay
Sequence of C168 (V11I, C38A, C76A, S105K, C127A) (human) (Q14116 37-193 V47I/C74A/C112A/S141K/C163A): as the sequence (Q14116 37-193 V47I/C74A/M87G/K89A/C112A/C163A) above, with G51M, A53K, S105K counted along it

[18] = target: IL-18 WT (native sequence, SEQ ID NO: 1) (human) (UniProt Q14116); test: cell-based or functional assay
[19] = target: IL-18 polypeptide SEQ ID NO: 34 (E06K, K53A, S55A) (human) (UniProt Q14116); test: cell-based or functional assay
Sequence of IL-18 polypeptide SEQ ID NO: 34 (E06K, K53A, S55A) (human) (Q14116 37-193 E42K/K89A/S91A): as the sequence (Q14116 37-193 V47I/C74A/M87G/K89A/C112A/C163A) above, with E6K, I11V, A38C, G51M, S55A, A76C, A127C counted along it

[20] = target: IL-18 polypeptide SEQ ID NO: 37 (S55A) (human) (UniProt Q14116); test: cell-based or functional assay
Sequence of IL-18 polypeptide SEQ ID NO: 37 (S55A) (human) (Q14116 37-193 S91A): as the sequence (Q14116 37-193 V47I/C74A/M87G/K89A/C112A/C163A) above, with I11V, A38C, G51M, A53K, S55A, A76C, A127C counted along it

[21] = target: IL-18 polypeptide SEQ ID NO: 38 (E06K) (human) (UniProt Q14116); test: cell-based or functional assay
Sequence of IL-18 polypeptide SEQ ID NO: 38 (E06K) (human) (Q14116 37-193 E42K): as the sequence (Q14116 37-193 V47I/C74A/M87G/K89A/C112A/C163A) above, with E6K, I11V, A38C, G51M, A53K, A76C, A127C counted along it

[22] = target: IL-18 polypeptide SEQ ID NO: 39 (E06K, K53A) (human) (UniProt Q14116); test: cell-based or functional assay
Sequence of IL-18 polypeptide SEQ ID NO: 39 (E06K, K53A) (human) (Q14116 37-193 E42K/K89A): as the sequence (Q14116 37-193 V47I/C74A/M87G/K89A/C112A/C163A) above, with E6K, I11V, A38C, G51M, A76C, A127C counted along it

[23] = target: IL-18 polypeptide SEQ ID NO: 40 (E06K, S55A) (human) (UniProt Q14116); test: cell-based or functional assay
[24] = target: IL-18 polypeptide SEQ ID NO: 41 (K53A, S55A) (human) (UniProt Q14116); test: cell-based or functional assay
Sequence of IL-18 polypeptide SEQ ID NO: 41 (K53A, S55A) (human) (Q14116 37-193 K89A/S91A): as the sequence (Q14116 37-193 V47I/C74A/M87G/K89A/C112A/C163A) above, with I11V, A38C, G51M, S55A, A76C, A127C counted along it

[25] = target: IL-18 polypeptide SEQ ID NO: 42 (E06K, K53A, S55A, T63A) (human) (UniProt Q14116); test: cell-based or functional assay
[26] = target: IL-18 polypeptide SEQ ID NO: 43 (E06K, K53A, S55A, Y01G) (human) (UniProt Q14116); test: cell-based or functional assay
Sequence of IL-18 polypeptide SEQ ID NO: 43 (E06K, K53A, S55A, Y01G) (human) (Q14116 37-193 Y37G/E42K/K89A/S91A): as the sequence (Q14116 37-193 V47I/C74A/M87G/K89A/C112A/C163A) above, with Y1G, E6K, I11V, A38C, G51M, S55A, A76C, A127C counted along it

[27] = target: IL-18 polypeptide SEQ ID NO: 46 (E06K, K53A, S55A, M51G) (human) (UniProt Q14116); test: cell-based or functional assay
Sequence of IL-18 polypeptide SEQ ID NO: 46 (E06K, K53A, S55A, M51G) (human) (Q14116 37-193 E42K/M87G/K89A/S91A): as the sequence (Q14116 37-193 V47I/C74A/M87G/K89A/C112A/C163A) above, with E6K, I11V, A38C, S55A, A76C, A127C counted along it

[28] = target: IL-18 polypeptide SEQ ID NO: 47 (C38S, C68S, C76S, C127S) (human) (UniProt Q14116); test: cell-based or functional assay
Sequence of IL-18 polypeptide SEQ ID NO: 47 (C38S, C68S, C76S, C127S) (human) (Q14116 37-193 C74S/C104S/C112S/C163S): as the sequence (Q14116 37-193 V47I/C74A/M87G/K89A/C112A/C163A) above, with I11V, A38S, G51M, A53K, C68S, A76S, A127S counted along it

[29] = target: IL-18 polypeptide SEQ ID NO: 48 (C38S, C68S, C76S, C127S, K70C) (human) (UniProt Q14116); test: cell-based or functional assay
Sequence of IL-18 polypeptide SEQ ID NO: 48 (C38S, C68S, C76S, C127S, K70C) (human) (Q14116 37-193 C74S/C104S/K106C/C112S/C163S): as the sequence (Q14116 37-193 V47I/C74A/M87G/K89A/C112A/C163A) above, with I11V, A38S, G51M, A53K, C68S, K70C, A76S, A127S counted along it

[30] = target: IL-18 polypeptide SEQ ID NO: 50 (E06K, K53A, T63A) (human) (UniProt Q14116); test: cell-based or functional assay
[31] = target: IL-18 polypeptide SEQ ID NO: 52 (E06K, T63A) (human) (UniProt Q14116); test: cell-based or functional assay
Sequence of IL-18 polypeptide SEQ ID NO: 52 (E06K, T63A) (human) (Q14116 37-193 E42K/T99A): as the sequence (Q14116 37-193 V47I/C74A/M87G/K89A/C112A/C163A) above, with E6K, I11V, A38C, G51M, A53K, T63A, A76C, A127C counted along it

[32] = target: IL-18 polypeptide SEQ ID NO: 55 (K53A, T63A, C38S, C68S, C76S, C127S, K70C) (human) (UniProt Q14116); test: cell-based or functional assay
[33] = target: IL-18 polypeptide SEQ ID NO: 6 (E6K, V11I, C38A, K53A, T63A, C68A, C76A, D98C, C127A) (human) (UniProt Q14116); test: cell-based or functional assay
Sequence of IL-18 polypeptide SEQ ID NO: 6 (E6K, V11I, C38A, K53A, T63A, C68A, C76A, D98C, C127A) (human) (Q14116 other isoform, or with tags, fused parts or gaps with the stated changes): as the sequence (Q14116 37-193 V47I/C74A/M87G/K89A/C112A/C163A) above, with E6K, G51M, T63A, C68A, D98C counted along it

[34] = target: IL-18 polypeptide SEQ ID NO: 60 (E6K, C38Q, K53A) (human) (UniProt Q14116); test: cell-based or functional assay
Sequence of IL-18 polypeptide SEQ ID NO: 60 (E6K, C38Q, K53A) (human) (Q14116 other isoform, or with tags, fused parts or gaps C38Q K53A C38Q K53A): as the sequence (Q14116 37-193 V47I/C74A/M87G/K89A/C112A/C163A) above, with E6K, I11V, A38Q, G51M, A76C, A127C counted along it

[35] = target: IL-18 polypeptide SEQ ID NO: 62 (E6K, C38A, K53A, C127A) (human) (UniProt Q14116); test: cell-based or functional assay
Sequence of IL-18 polypeptide SEQ ID NO: 62 (E6K, C38A, K53A, C127A) (human) (Q14116 other isoform, or with tags, fused parts or gaps C38A K53A C127A C38A K53A C127A): as the sequence (Q14116 37-193 V47I/C74A/M87G/K89A/C112A/C163A) above, with E6K, I11V, G51M, A76C counted along it

Sequence of IL-18 WT (native sequence, SEQ ID NO: 1) (human) (Q14116 37-193): as the sequence (Q14116 37-193 V47I/C74A/M87G/K89A/C112A/C163A) above, with I11V, A38C, G51M, A53K, A76C, A127C counted along it
Sequence of C086 (SEQ ID NO: 30; E6K, V11I, C38A, K53A, T63A, C76A, C127A) (human) (Q14116 other isoform, or with tags, fused parts or gaps with the stated changes): as the sequence (Q14116 37-193 V47I/C74A/M87G/K89A/C112A/C163A) above, with E6K, G51M, T63A counted along it
Sequence of C144 (V11I, C38A, K53A, T63A, C76A, C127A) (human) (Q14116 37-193 V47I/C74A/K89A/T99A/C112A/C163A): as the sequence (Q14116 37-193 V47I/C74A/M87G/K89A/C112A/C163A) above, with G51M, T63A counted along it
Sequence of C143 (V11I, C38A, K53A, C76A, C127A) (human) (Q14116 37-193 V47I/C74A/K89A/C112A/C163A): as the sequence (Q14116 37-193 V47I/C74A/M87G/K89A/C112A/C163A) above, with G51M counted along it

Substance: Fc-fused human IL-18 binding protein isoform a (IL-18BPa) (from UniProt O95998 31-194) (Fc fusion)
- IC50 (read off the curve), inhibition of IFNg production by NK-92 cells [1]: 1 to 2 nM
- IC50 (nM), IL-18BPa inhibition of IFNγ induction, NK-92 cells [2]: 284 nM
- IC50 (nM), IL-18BPa inhibition of IFNγ induction, NK-92 cells [3]: 7.52 nM
- IC50 (nM), IL-18BPa inhibition of IFNγ induction, NK-92 cells [4]: 10.2 nM
- IC50 (nM), IL-18BPa inhibition of IFNγ induction, NK-92 cells [5]: 47.6 nM
- IC50 (nM), IL-18BPa inhibition of IFNγ induction, NK-92 cells [6]: 1.17 nM
- IC50 (nM), IL-18BPa inhibition of IFNγ induction, NK-92 cells [7]: 2.22 nM
- IC50 (nM), IL-18BPa inhibition of IFNγ induction, NK-92 cells [8]: 3.23 nM
- IC50 (nM), IL-18BPa inhibition of IFNγ induction, NK-92 cells [9]: 3.98 nM
- IC50 (nM), IL-18BPa inhibition of IFNγ induction, NK-92 cells [10]: 1.81 nM
- IC50 (nM), IL-18BPa inhibition of IFNγ induction, NK-92 cells [11]: 1.07 nM
- IC50 (nM), IL-18BPa inhibition of IFNγ induction, NK-92 cells [12]: 7.29 nM
- IC50 (nM), IL-18BPa inhibition of IFNγ induction, NK-92 cells [13]: 0.823 nM
- IC50 (nM), IL-18BPa inhibition of IFNγ induction, NK-92 cells [14]: 0.885 nM
- IC50 (nM), IL-18BPa inhibition of IFNγ induction, NK-92 cells [15]: 0.44 nM
- IC50 (nM), IL-18BPa inhibition of IFNγ induction, NK-92 cells [16]: 0.809 nM
- IC50 (nM), IL-18BPa inhibition of IFNγ induction, NK-92 cells [17]: 5.85 nM
- IC50 (nM), IL-18BPa inhibition of IFNγ induction, NK-92 cells [18]: 1.47 nM
- IC50 (nM), IL-18BPa inhibition of IFNγ induction, NK-92 cells [19]: 229 nM
- IC50 (nM), IL-18BPa inhibition of IFNγ induction, NK-92 cells [20]: 4.46 nM
- IC50 (nM), IL-18BPa inhibition of IFNγ induction, NK-92 cells [21]: 7.79 nM
- IC50 (nM), IL-18BPa inhibition of IFNγ induction, NK-92 cells [22]: > 703 nM
- IC50 (nM), IL-18BPa inhibition of IFNγ induction, NK-92 cells [23]: 15 nM
- IC50 (nM), IL-18BPa inhibition of IFNγ induction, NK-92 cells [24]: 37.3 nM
- IC50 (nM), IL-18BPa inhibition of IFNγ induction, NK-92 cells [25]: 1060 nM
- IC50 (nM), IL-18BPa inhibition of IFNγ induction, NK-92 cells [26]: 27.8 nM
- IC50 (nM), IL-18BPa inhibition of IFNγ induction, NK-92 cells [27]: 0.189 nM
- IC50 (nM), IL-18BPa inhibition of IFNγ induction, NK-92 cells [28]: 0.444 nM
- IC50 (nM), IL-18BPa inhibition of IFNγ induction, NK-92 cells [29]: 0.114 nM
- IC50 (nM), IL-18BPa inhibition of IFNγ induction, NK-92 cells [30]: > 1000 nM
- IC50 (nM), IL-18BPa inhibition of IFNγ induction, NK-92 cells [31]: 47.1 nM
- IC50 (nM), IL-18BPa inhibition of IFNγ induction, NK-92 cells [32]: > 1000 nM
- IC50 (nM), IL-18BPa inhibition of IFNγ induction, NK-92 cells [33]: 5.85 nM
- IC50 (nM), IL-18BPa inhibition of IFNγ induction, NK-92 cells [34]: 654 nM
- IC50 (nM), IL-18BPa inhibition of IFNγ induction, NK-92 cells [35]: 780 nM

Reference: patent US20240116997A1
